The target of data set [1] is T1, REF6 ZnF1-4 WT (Arabidopsis thaliana, UniProt Q9STM3 1223-1360).
T1 sequence: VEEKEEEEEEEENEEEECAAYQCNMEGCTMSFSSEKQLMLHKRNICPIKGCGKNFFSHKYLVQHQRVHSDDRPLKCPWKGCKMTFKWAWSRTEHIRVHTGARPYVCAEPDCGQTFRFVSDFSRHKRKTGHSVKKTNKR
Kind of data set: EMSA; MST: 20 mM HEPES pH 7.3, 150 mM NaCl, 0.2 mM TCEP, 0.5% CA-630, 25 C; EMSA: 30 uM protein, 10 uM dsDNA, 20 mM Tris pH 8.0, 100 mM NaCl, 2.5 mM MgCl2, 0.1% CA-630, 10% glycerol, 1 uM ZnSO4, 1 mM DTT, 4 C. The conditions noted are these: protein: recombinant, tags: His6-MBP or GST tag, TEV-cleavable (cleaved when necessary). For orientation: Mobility shift assays separate free from complexed probe on a gel.

The target of data set [2] is T1, REF6 ZnF1-4 WT. Kind of data set: MST; MST: 20 mM HEPES pH 7.3, 150 mM NaCl, 0.2 mM TCEP, 0.5% CA-630, 25 C; EMSA: 30 uM protein, 10 uM dsDNA, 20 mM Tris pH 8.0, 100 mM NaCl, 2.5 mM MgCl2, 0.1% CA-630, 10% glycerol, 1 uM ZnSO4, 1 mM DTT, 4 C. To be noted: protein: recombinant, tags: His6-MBP or GST tag, TEV-cleavable (cleaved when necessary).
Data set [3] deals with the molecule itself. Put plainly: SEC; analytical gel filtration, Superdex 200 10/300 GL, 5.0 mg mL^−1, no DNA; 20 mM HEPES pH 7.3, 500 mM NaCl, 2 mM β-mercaptoethanol. Background: Size exclusion chromatography separates by hydrodynamic size, large species first.
The target in a further data set is T2, REF6 N1276F (Arabidopsis thaliana, UniProt Q9STM3 1223-1360, N1276F).
T2 sequence: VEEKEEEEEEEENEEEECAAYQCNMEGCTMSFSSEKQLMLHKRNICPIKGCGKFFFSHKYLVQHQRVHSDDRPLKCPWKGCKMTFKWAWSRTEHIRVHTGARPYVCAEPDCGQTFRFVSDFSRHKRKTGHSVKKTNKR
Kind of data set: MST; MST: 20 mM HEPES pH 7.3, 150 mM NaCl, 0.2 mM TCEP, 0.5% CA-630, 25 C; EMSA: 30 uM protein, 10 uM dsDNA, 20 mM Tris pH 8.0, 100 mM NaCl, 2.5 mM MgCl2, 0.1% CA-630, 10% glycerol, 1 uM ZnSO4, 1 mM DTT, 4 C. To be noted: protein: recombinant; tags: His6-MBP or GST, TEV-cleavable; label: FAM in MST.

The target in data set [4] is T1, REF6 ZnF1-4 WT. Put plainly: MST; Hill coefficient 1.9; MST: 20 mM HEPES pH 7.3, 150 mM NaCl, 0.2 mM TCEP, 0.5% CA-630, 25 C; EMSA: 30 uM protein, 10 uM dsDNA, 20 mM Tris pH 8.0, 100 mM NaCl, 2.5 mM MgCl2, 0.1% CA-630, 10% glycerol, 1 uM ZnSO4, 1 mM DTT, 4 C. The conditions noted are these: protein: recombinant; tags: His6-MBP or GST tag, TEV-cleavable (cleaved when necessary); label: FAM in MST.

B1: CUC1-5 (dsDNA)
DNA 1: TTTCTCTGCTCAAAT
DNA 2: ATTTGAGCAGAGAAA
In the case of B1, in the data set with REF6 ZnF1-4 WT [1] (label: FAM in MST), the binding result is recorded as “binds”.

B2: CUC1-2 (dsDNA)
DNA 1: AGACTCTGTTTCAGA
DNA 2: TCTGAAACAGAGTCT
Regarding B2, in the data set with REF6 ZnF1-4 WT [1], the binding result is on record as “binds”.

B3: CUC2-2 (dsDNA)
DNA 1: TCTCTCTGTCTTTTC
DNA 2: GAAAAGACAGAGAGA
As to B3, in the data set with REF6 ZnF1-4 WT [1], the binding result is listed as “binds”.

B4: CUC1-3 (dsDNA)
DNA 1: GGACTCTGTTTTAGA
DNA 2: TCTAAAACAGAGTCC
One may read the Kd as the free concentration of one partner at which half of the binding sites on the other are occupied at equilibrium, for simple one-to-one binding. Turning to B4, the Kd with REF6 ZnF1-4 WT [2] (label: FAM in MST) was found to be 1 µM.

B5: CUC1-6 (dsDNA)
DNA 1: TTGCTCTGTTCGTTC
DNA 2: GAACGAACAGAGCAA
Take B5: the binding result with REF6 ZnF1-4 WT [1] is recorded as “binds”.

B6: m5-m9'C (dsDNA)
DNA 1: CTTTCTCTGTTTTGTC
DNA 2: GGACAAAACAGAGAAA
modifications: methylcytosine at position 9 of strand 2 (9'C)
As to B6, in the data set with REF6 ZnF1-4 WT [2] (label: FAM in MST, 5' overhang 1 nt on both strands (as m5)), the dissociation constant Kd came out at 5.9 µM.

B7: REF6 (residues 1223–1360) (domain or fragment, Arabidopsis thaliana, UniProt Q9STM3 1223-1360, looked up)
chain: VEEKEEEEEEEENEEEECAAYQCNMEGCTMSFSSEKQLMLHKRNICPIKGCGKNFFSHKYLVQHQRVHSDDRPLKCPWKGCKMTFKWAWSRTEHIRVHTGARPYVCAEPDCGQTFRFVSDFSRHKRKTGHSVKKTNKR
notes: The fusion tag was cleaved with TEV protease 'when necessary'
The stoichiometry N is the number of molecules, sites or subunits per partner or assembly. Consider B7, for which the “stoichiometry N” value in data set [3] is 2.

B8: REF6 fragment 1175–1360 (domain or fragment, Arabidopsis thaliana, UniProt Q9STM3 1175-1360, looked up)
chain: DSYMEGPSTRLRVRHQKPSRGSLETKPKKIGKKRSGNASFSRVATEKDVEEKEEEEEEEENEEEECAAYQCNMEGCTMSFSSEKQLMLHKRNICPIKGCGKNFFSHKYLVQHQRVHSDDRPLKCPWKGCKMTFKWAWSRTEHIRVHTGARPYVCAEPDCGQTFRFVSDFSRHKRKTGHSVKKTNKR
notes: source: E. coli BL21 (DE3), purified
B8: the “stoichiometry N” value in data set [3] is 2.

B9: CUC2-4 (dsDNA)
DNA 1: TCCCTCTGTGCACGC
DNA 2: GCGTGCACAGAGGGA
As to B9, in the data set with REF6 ZnF1-4 WT [1] (label: FAM in MST), the binding result is “binds”.

B10: REF6 fragment 1139–1360 (domain or fragment, Arabidopsis thaliana, UniProt Q9STM3 1139-1360, looked up)
chain: RSTAKRIAKTKTVQSSRDTKGRFLQEFASGKKNEELDSYMEGPSTRLRVRHQKPSRGSLETKPKKIGKKRSGNASFSRVATEKDVEEKEEEEEEEENEEEECAAYQCNMEGCTMSFSSEKQLMLHKRNICPIKGCGKNFFSHKYLVQHQRVHSDDRPLKCPWKGCKMTFKWAWSRTEHIRVHTGARPYVCAEPDCGQTFRFVSDFSRHKRKTGHSVKKTNKR
notes: as for B8
On to B10, for which the “stoichiometry N” value in data set [3] was determined as 2.

B11: CUC2-1 (dsDNA)
DNA 1: TTGCTCTGTTAGTTC
DNA 2: GAACTAACAGAGCAA
As for B11, in the data set with REF6 ZnF1-4 WT [1], the binding result is “binds”.

B12: m12 (G9A) (dsDNA)
DNA 1: CTTTCTCTATTTTGTC
DNA 2: GGACAAAATAGAGAAA
With B12, the Kd with REF6 ZnF1-4 WT [2] (label: FAM, 5' overhang 1 nt on both strands (as m5)) turned out to be 4.5 µM.

B13: CUC1-3+4 (dsDNA)
DNA 1: TCTAAAACAGAGTCCTCCTTACTCTGTTTGTAA
DNA 2: TTACAAACAGAGTAAGGAGGACTCTGTTTTAGA
As for B13, the binding signal is 2.5 fold lower affinity than WT with REF6 N1276F and 5 fold higher affinity than CUC1-3 (13-fold than CUC1-4) with REF6 ZnF1-4 WT [4].

B14: CUC2-3 (dsDNA)
DNA 1: TAGCTCTGATAAAAT
DNA 2: ATTTTATCAGAGCTA
For B14, the binding result with REF6 ZnF1-4 WT [1] is on record as “binds”.

B15: CUC1-4 (dsDNA)
DNA 1: TTACTCTGTTTGTAA
DNA 2: TTACAAACAGAGTAA
In the case of B15, the Kd with REF6 ZnF1-4 WT [2] (label: FAM in MST) was 2.6 µM.

B16: CUC1-1 (dsDNA)
DNA 1: TTCCTCTGTTCTTAT
DNA 2: ATAAGAACAGAGGAA
B16: in the data set with REF6 ZnF1-4 WT [1] (label: FAM in MST), the binding result is recorded as “binds”.

The record behind these values is PMC7105484, “Crystal structures of REF6 and its complex with DNA reveal diverse recognition mechanisms” (Cell Discovery, 2020).
